Source: US20110275057A1
Each block holds one substance with its values, some of them ahead of it.

Tests used:
[1] = molecular target: Protein Kinase A catalytic subunit (bos taurus) (UniProt P00517); assay: cell-based or functional assay
[2] = molecular target: Protein Kinase A catalytic subunit (bos taurus) (UniProt P00517); assay: holoenzyme formation with CS; method and reference not described

inhibitory effects (on kinase activity) relative to the wild type RS [1]: > 80% | kinase activity, fold increase on addition of cAMP to the holoenzyme built with the Cys mutant without DNA (FIG. 17b) [1]: 3 fold
Substance: Protein Kinase A regulatory subunit (RIα isomer), double Cys mutant (Ser 145→Cys; Gly 235→Cys), no DNA coupled (from UniProt Q9DBC7 1-381)

kinase activity, fold increase on addition of cAMP to the chimera holoenzyme, batch of FIG. 17a [1]: 3 fold | kinase activity, fold increase on addition of cAMP to the chimera holoenzyme, second batch (FIG. 17b) [1]: 2 fold | γcAMP (case γDNA<γcAMP) [1]: 2.3 fold | γcAMP (increase in activity by cAMP; case γDNA≧γcAMP) [1]: 2.6 fold | decrease in associating with the CS to form the holoenzyme [2]: 20%
Substance: RIα-DNA chimera: PKA regulatory subunit (Ser 145→Cys; Gly 235→Cys) with a single stranded DNA 60 mer coupled to the two Cys residues (from UniProt Q9DBC7 1-381)

kinase activity (Luciferase assay, ATP disappearance), fold increase over the ss chimera holoenzyme, batch of FIG. 17a [1]: 2 fold | kinase activity, increase over the ss chimera holoenzyme, second synthesis batch (FIG. 17b) [1]: 50% | γDNA (increase in activity by the complementary DNA, corrected for the yield; case γDNA≧γcAMP) [1]: 2.7 fold
Substance: RIα-DNA chimera hybridized with the complementary DNA 60 mer (ds chimera, under mechanical tension) (from UniProt Q9DBC7 1-381)
